Test: soluble on expression in E. coli; label from the status in PepcDB or PDB records

| Sequence | soluble on expression in E. coli |
| --- | --- |
| MKEKIPFYNEKEFHYMMKKTKKGTFSGWYIINPENNSVEFSGSFNRQFKLNKPVIPVNTEYVTRKEFNEYKDSNDQRLTKIENKVDKLEIKVDKLEKKVDKLEVKVDKLVETVNAQGEDLNNFKVEVRGTLQSQGETLQLILQTLQGMSKRLDSVEGRLDSMDGRLDSMETRLDKIDPLKLEHHHHHH | not soluble |
| MKMFLAQKGVPFEFVNAREDEEARKKVTALAGSPTAGVVLEWEGGTEVIRGVSPASLHAWLARYRGKEA | soluble |
| KDIGSLTLALEQLKEKLRLKGYFDEENKLPKPHFPKRVAVITSQNSAAWADMKKIASKRWPMCELVCINTLMQGEGCVQSVVESIVYADSFHDTK | not soluble |
| MKLTIHEIAQVVGAKNDISIFEDTQLEKAEFDSRLIGTGDLFVPLKGARDGHDFIETAFENGAAVTLSEKEVSNHPYILVDDVLTAFQSLASYYLEKTTVDVFAVTGSNGKTTTKDMLAHLLSTRYKTYKTQGNYNNEIGLPYTVLHMPEGTEKLVLEMGQDHLGDIHLLSELARPKTAIVTLVGEAHLAFFKDRSEIAKGKMQIADGMASGSLLLAPADPIVEDYLPIDKKVVRFGQGAELEITDLVERKDSLTFKANFLEQALDLPVTGKYNATNAMIASYVALQEGVSEEQIRLAFQHLELTRNRTEWKKAANGADILSDVYNANPTAMKLILETFSAIPANEGGKKIAVLADMKELGDQSVQLHNQMILSLSPDVLDIVIFYGEDIAQLAQLASQMFPIGHVYYFKKTEDQDQFEDLVKQVKESLGAHDQILLKGSNSMNLAKLVESLEN | soluble |
| ECGHISVSAPIVHLGDPITASCIIKQNCSHLDPEPQILWRLGAELQPGGRQQRLSDGTQESIITLPHLNHTQAFLSCSLNWGNSLQILDQVELRAGYPPAIPHNLSCLMNLTTSSLICQWEPGPETHLPTSFTLKSFKSRGNCQTQGDSILDCVPKDGQSHCSIPRKHLLLYQNMGIWVQAENALGTSMSPQLCLDPMDVVKLEPPMLRTMDPSPEAAPPQAGCLQLSWEPWQPGLHINQKCELRHKPQRGEASWALVGPLPLEALQYELCGLLPATAYTLQIRCIRWPLPGHWSDWSPSLELRTTERAAAPR | soluble |
| MSSASAHHKKDLLDQVNNPVFLQDLRQQMIKFAVLQLASLPHAEDVVQDALASAFQHLDSFTGRAAFKTWVFAILKNKIIDLIRQKSRLVSMSELFKDEESELSIDALFDASGHWHKYEAPQAWLSPEEMMEQQDFWIIFDACLNHLPAKYAQVFMLREVIELNSSEICEKLELTVSHFNVLMYRSRTRLRECLENKWLLQEDCSC | not soluble |
| MSLSSVYTMKRIWLQKDKKAYQAWHELMEKAELQTTEALDYTVGIYDDTALIASGSLSGKTIKCVAVCKKYQSENLLTQLVVHLLEKLREENQLHSFLYTKPKNEQIFQSLGFQKVVANQEVLFMEQGKPDFADYLGYLTQHKKAGPASSIVMNANPFTKGHQYLVEKAAQESPHVYVFVLSEDKSLFSKEARFAMVQKGVAHLPNVTVLSTEDYLVSSATFPTYFLKEKAPLEVAAIQATLDATLFKERIAPILEIQQRYVGEEPYSEVTAVYNQAMQQVFGQTITLTIVPRLASDGELISATKVRKAMAEGDKETLKKFLPATSYQYLVEHKKLMREGGSHHHHHH | soluble |
| MSLTQNAVEKTPVTMLGLGAMGTALARTWLAAGHRLTVWNRTPARAAALAAEGARVADSAAEAVAANTLVIVCLLDDSSVDEVLAGIDLADTDLVNLTTSTPAQARARAEWANERGARYLDGGIMAVPPMIGVPEAGSYVFCSGSRELFERHQETLGIPAGTTYVGMDAGFAALHDMALLSAMYGMFAGVAHAFALIHKEDIDPTSLAPMLADWLVAMAPAVHQTADHLRSGDYTKGVVSTLAMQVAGTPTFLSTAEQQGVSPELLSPYFELMRRRLAEGSGEEDLTGVINLLVHEGHHHHHH | not soluble |
| MTAPISLRLVVEARDLPPMLPDVLRERFDRGETGVAWAPEHDASVGAPLGVLGGPEATAWPFAISEPPPVNVPALCAVGPCWWYPSFGAVIGNDGALYNATVGEARHGSADLSAIPGVASGGTRLVPPQDAPVLDGGAVFMPWGAGFNYGHFVIDALPSILALEQAGLLHDTPLLAPRLTDWQRELIAMATPGVRLQEVDAPAVRLGRAVFATSMDHFLHHPNGLLATLAERVTANAPKGAGARRVYLSRRGQSMRVMVGEAAFERALQARGFVIVRPETLGARAQVALMRDAEIIVGASGAALANAVFLPRGARVIEIQPTNFTSQWVRAACRQVGVEWRGYVCASPCPAHAAPLLARLRRGFKFAFRPDLDDLLSFVDAALLEHHHHHH | not soluble |
| MLRRSSRHADQRKNGAQLRAEEEANKVKLRLTAENEKLKSEVEKLKKDHEELSRVTLKVNTEFTIQESHMARLLRENMSLKEQLNDFSFKLRFRDDMSRVEEQVKKEQGVTDGYRRRVNQLTEFHVKSQEEQRGEPFPWRTCEICACKFEGETMDQTPRVLGCGHTMCMGCVQKIVGQGYIKCPFCRIVTKIGTTPLNNLPKNYIVLNM | not soluble |
| MKETEILNRAYNYMCTYHKDDATGHDIAHINRVLRLATYIAEQEQSQHMLTIQLASLLHDTVDSKLTNHEKALTKLKSFLKDLQLPKEQQQHILHIIKHISYRHGQNNEVSLTLEGQIVRDADRLDAIGAIGIARTFQFAGHFNEPMWVEHSTKHITETDDAHYDQWSPSAIKHFYEKLLKLKSLMHTETAKQLAAQRHQYMENFINQFFEEWYFLEHHHHHH | soluble |
| QQRFLNIATDGRLSPKQKSNFLALEAEACIPYMPISEALREAMSDGVICDMFEGHAPFKPRYVLPDYAKFLSQGSEYLELSPAEDFDDALN | not soluble |
| MPDHARMPRNLSSNKIAKTIAGEDLDEEEVLEMDAGQSAREEGRFVFECAWEVANKVGGIYTVLRSKAQISTEELGDQYCMFGPMKDGKWRLEVDPIEPENRTIRAAMKRFQADGFRCMYGRWLIEGYPKVILFDLGSGAVKMNEWKHELFEQCKIGIPHEDIESNDAVILGFMVALFLKHFRESVTSYTPLVVAHFHEWQAGVGLLMTRLWKLDIATVYTTHATLLGRHLCAGGADLYNNLDSFDLDAEAGKRKIYHQYCLERAACQTAHIFTTVSEITGLEAEHFLCRKPDVLTPNGLNVVKFAALHEFQNLHAQNKEKINQFIRGHFHGHLDFDLDKTLYFFTAGRYEFSNKGGDMFIESLARLNHYLKTTSDPRHMGVTVVAFLIYPAPANSFNVESLKGQAVTKQLKEAVDRIKEKVGQRIFDICLQGHLPEPEELMSPADNILLKRCIMSLHNSSLPPICTHNMIRADDPVLESLRRTSLFNKPEDRVKVVFHPEFLSSVSPLIGLDYEDFVRGCHLGVFPSYYEPWGYTPAECTVMGIPSVSTNLSGFGCFMQEHVEDHEQKGIYVIDRRHKAAEESVQELAQVMYDFCGQSRRQRIILRNSNEGLSALLDWQNLGVFYRDCRRLALERLHPDVDKIMRDNEGKVPSAATSRRPSIHSSDGEDDE | not soluble |
| MSLSQAVSSPLYAAIDLGSNSFHMLVVRHIDGSVQTMAKIKRKVRLAAGLDEHNALSLDAMQRGWDCLSLFAERLQDIPAENIRIVGTATLRTATNAGEFIAKANQILGHPIDVISGEEEAATIYKGVAHTSGGLGRRLVVDIGGASTELIIGEGFEAKALTSLKMGCVTWLERHFKDRQLTATNFNNAILAAKQMLDPILTQYTELGWNVCVGASGTVQALQEIMLAQGMDEVITLTKLKRLQKQAMLADHLEELDIEGLTLERALVFPSGLSILIAIFESLNIEAMTLAGGALREGLVYEMVQDLRQEDIRARTIRCVQTRYQIDSAYGDQVATLASKLLAQCGGEAWINEPQAEMLLRTAAKLHEIGLTIDFKKGGEHSAYLLQHLDLPGYTRAQKHYLGEIVRRYREQLTSLPEQYALSGTSGKRVLRLLRLAVLLSHRRSPALEPMVELSAQEDKLTLTLDGEWLAKNPLTRTELELEANRQTDIGWPLSIECHEGGSHHHHHH | soluble |
| VAIDTVITDMDGTLLVKKGDQIHPLNKEVLINWQADGKKLFLATGRLDLAILPFIHELNIKTPVISCNGGLVRDFTTGEILYKSNIELDLVHTVLETLEPLGVNYHIYTTERIIGPTNTGKIAFFNELNKTLSENEQVPITLTTDPFSVLREGEFPLKVLVIESDLEKRAEIKAALQGLPLSVLASASNLIDIMNEGIDKAKGLTYLADNGYINLNSTIAFGDNENDVGMIELAEIGVAMENGIPLALEKADKIAKHHDIGGLGLFMQEEIL | not soluble |
| MEWKNDVLRFSGFDYGVSKIRMLNEELHSECDQLSKSNESTSLKDITEEPKDEKLESIIETAKNKESEKEENSHVFNDCEFDAMTERKIENFYFRNVEQAEKKMKHLTTLKSKWSEPWQTGEEIVAKVYLKPKNHENPWKDGTFQEKEAVEMQKNGKKHGRCIIS | not soluble |
| MSLAIVAKRTIMSLFSDVDDVYSHQVRIVLAEKGVNVEILAVKQDEPGADLLSINPYGTVPTLIDRELVLYEARIIMEYLDERFPHPPLLPVYPVARAEARKMMHRIEQDWYYLMNAILREESVEQARANLLESLTSLDPVFADKPYFLSDEFSLLDCALAPLLWRLPKLGLEIAPNFKGIISYMQRVFKRDSFQTSLTDAERQIRAAEGHHHHHH | soluble |
| SVPLVAVVSGPRAQLFACLLRLGTQQVGPLQLHTGASHAARNHYEVLVLGGGSGGITMAARMKRKVGAENVAIVEPSERHFYQPIWTLVGAGAKQLSSSGRPTASVIPSGVEWIKARVTELNPDKNCIHTDDDEKISYRYLIIALGIQLDYEKIKGLPEGFAHPKIGSNYSVKTVEKTWKALQDFKEGNAIFTFPNTPVKCAGAPQKIMYLSEAYFRKTGKRSKANIIFNTSLGAIFGVKKYADALQEIIQERNLTVNYKKNLIEVRADKQEAVFENLDKPGETQVISYEMLHVTPPMSPPDVLKTSPVADAAGWVDVDKETLQHRRYPNVFGIGDCTNLPTSKTAAAVAAQSGILDRTISVIMKNQTPTKKYDGYTSCPLVTGYNRVILAEFDYKAEPLETFPFDQSKERLSMYLMKADLMPFLYWNMMLRGYWGGPAFLRKLFHLGMS | soluble |
| MQPTPTQRPEAIVHDEKAQLDFARDMSYGDYLHLDELLGAQHPLSPEHNEMLFIVQHQTSELWMKLMLHELRAAIAAIQQDRLQPAFKMLARVSKILEQLVSAWDVLATMTPPEYSALRPYLAHSSGFQSYQYRQIEYLLGNKNAAMLQPHAHRADLLAQVRAAFEAPSLYDEALRFLARSGLAVPAGALQRDWTQPYRADDQVEQAWLTVYRQSERYWNQYQLGEKLTDLEDAFRLWRFRHVTTVERIIGFKRGTGGTSGVTYLRKMLEVVLFPEIWKLRTDLLEHHHHHH | not soluble |
| MDEKKLFENFQLTFGRMISPFEIEDIQKWIHEDNMPIEVVNLALREAVENNKISWKYINKILVDWYKSGDTTVEKVRDRLQRFDDSKKQRSVTTSNVPSWSNPDYKEPDLEEFALGSMDGIEDGSGDF | not soluble |
| MAHHHHHHMTVAKKCMVVLQHGSHGTHLDLACLSQYLKAKDPRLIVWESYKNEGMRTDDGVVPCGERLADNLIREIKELCSTPTQSGGDGGREKVVVQMSFVCHSMGGLIVREALPRVWDKVESQKGKLEIEWNMFCTIATPHGGVCQMASTLRYYLGRLISFFYSTSYHDMFLGSDVLTDRLLSPKHLSCLAAFKRRLLVSSINDILVPLMSSGFMLTPSQRGLPGDMLREEQKQLCAFNEREMYDKMRTITEIPKEEWPANKFLAERRIAKTLVQAVGNFDSVVVDLRSPRLEELYEDRKRRTTAWYGANKRSHQAMVCKPPFDTVEEAFGFVSHMVGDEVLATFQE | not soluble |
| SNRVNDPLIFIRDIKPGLKNLNVVFIVLEIGRVTKTKDGHEVRSCKVADKTGSITISVWDEIGGLIQPGDIIRLTRGYASMWKGCLTLYTGRGGELQKIGEFCMVYSEVPNFSEPNPDYRGQQNKGAQSEQKNNSMNSNMGTGTFGPVGNGVHTGPESREHQFSHAGRSNGRGLINPQLQGTASNQTVMTTISNGRDPRRAFKR | soluble |

From the DeepSol protein solubility set
